According to paper PMC5000626, “Urinary Dopamine as a Potential Index of the Transport Activity of Multidrug and Toxin Extrusion in the Kidney” (International Journal of Molecular Sciences, 2016):

Tested on: NCCc1ccc(O)c(O)c1
Experiment: cells, lysate or membranes
Conditions: other: [3H]dopamine uptake at 1 min, HEK293 cells expressing hMATE2-K, mean ± S.E., n=3; pH 7.4; 37.0 °C

hMATE2-K (Homo sapiens), sequence (chain, as listed by the source): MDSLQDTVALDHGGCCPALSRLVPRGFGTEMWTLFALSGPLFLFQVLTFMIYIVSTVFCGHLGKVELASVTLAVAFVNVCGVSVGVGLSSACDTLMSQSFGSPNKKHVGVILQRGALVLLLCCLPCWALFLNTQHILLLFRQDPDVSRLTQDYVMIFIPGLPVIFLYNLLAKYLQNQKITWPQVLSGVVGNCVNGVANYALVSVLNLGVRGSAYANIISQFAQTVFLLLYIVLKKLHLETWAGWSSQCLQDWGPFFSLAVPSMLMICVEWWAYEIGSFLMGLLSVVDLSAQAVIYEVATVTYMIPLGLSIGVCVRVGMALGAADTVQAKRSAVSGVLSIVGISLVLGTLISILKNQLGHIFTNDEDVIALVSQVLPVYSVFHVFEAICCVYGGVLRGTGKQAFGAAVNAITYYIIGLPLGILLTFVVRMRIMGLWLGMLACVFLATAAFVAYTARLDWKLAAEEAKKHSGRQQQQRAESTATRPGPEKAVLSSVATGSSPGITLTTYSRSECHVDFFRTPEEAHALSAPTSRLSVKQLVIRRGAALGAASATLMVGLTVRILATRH

Q: For hMATE2-K (Homo sapiens), which Km is on record?
A: 2480 ± 650 µM
